From patent US20220267379A1, “NOVEL INHIBITORS OF […] AND USES THEREOF” (Ecole Polytechnique Federale de Lausanne (EPFL), priority 2019, published 2022)
Positions of bridges follow the written chain, without caps; N, C: chain ends. Non-standard residues stand in square brackets, D forms with d. Chains are numbered I, II in the order given. No end group written: not given here. *: point of attachment. Palmitoyl = CCCCCCCCCCCCCCCC(=O)*; hArg = N=C(N)NCCCC[C@H](N)C(=O)O; Nle = CCCC[C@H](N)C(=O)O

Legend:
[1] = molecular target: T1, human Kallikrein-related peptidase 7 (hKLK7) (human), P49862; assay: enzyme inhibition; pyridine linker; conditions: modification not given
Target sequence in this assay (P49862 30-253): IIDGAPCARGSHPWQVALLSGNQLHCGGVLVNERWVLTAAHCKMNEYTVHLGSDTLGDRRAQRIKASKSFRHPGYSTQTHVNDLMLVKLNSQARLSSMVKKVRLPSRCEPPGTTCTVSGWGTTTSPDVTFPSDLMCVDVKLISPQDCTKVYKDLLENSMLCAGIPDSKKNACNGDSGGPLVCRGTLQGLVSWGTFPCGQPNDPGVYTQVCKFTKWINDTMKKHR

[2] = molecular target: human serum albumin (HSA) (human), P02768; assay: fluorescence polarization
[3] = molecular target: T1, human Kallikrein-related peptidase 7 …; assay: substrate-based activity assay
Target sequence in this assay (P49862 30-253 limits assumed): as the sequence (P49862 30-253) above

[4] = molecular target: T1, human Kallikrein-related peptidase 7 …; assay: enzyme inhibition; 1,3-dibromoacetone linker; conditions: modification not given
Target sequence in this assay (P49862 30-253): as above

[5] = molecular target: T1, human Kallikrein-related peptidase 7 …; assay: enzyme inhibition; ketone linker; conditions: modification not given
Target sequence in this assay (P49862 30-253): as above

[6] = molecular target: human Kallikrein-related peptidase 5 (hKLK5) (human), Q9Y337; assay: enzyme inhibition; 2,6-bis(bromomethyl)pyridine linker; conditions: modification not given
[7] = molecular target: T1, human Kallikrein-related peptidase 7 …; assay: as above; conditions: modification not given
Target sequence in this assay (P49862 30-253): as above

Chain of human Kallikrein-related peptidase 5 (hKLK5) (human), Q9Y337 (Q9Y337 67-293): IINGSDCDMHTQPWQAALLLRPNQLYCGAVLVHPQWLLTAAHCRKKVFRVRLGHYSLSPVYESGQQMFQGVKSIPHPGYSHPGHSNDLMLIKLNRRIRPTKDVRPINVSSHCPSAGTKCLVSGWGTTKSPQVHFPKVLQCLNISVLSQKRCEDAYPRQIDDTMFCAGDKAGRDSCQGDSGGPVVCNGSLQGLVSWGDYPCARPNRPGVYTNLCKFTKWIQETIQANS

## PCLYLAC [109]
[1]
  Ki: 19 nM

B1: KLK7 inhibitor 278-tag (final KLK7 inhibitor) (peptide)
peptide 1: PCLY[Nle]A[hArg]CGKG
peptide 2: EYEK(Palmitoyl)EYE
modifications: bridge I:2-I:8; not fully specified (some residues, N-terminus, bridges); also: chain 2 (albumin tag) attached via PEG2 to Lys10 side chain of chain 1 (branched)
[2]
  Kd: 164 nM
[3]
  Ki: 7.4 nM

## PCLYLSCS [080]
[1]
  Ki: 29.4 nM

## PCLYLTCS [088]
[1]
  Ki: 52 nM

## FCLWPWCQPPEACPSQCE [012]
[4]
  Ki: > 1000 nM

## PCLYLSRCS [095]
[5]
  Ki: 90 nM

## PCLYMARCS [111]
[5]
  Ki: 10 nM

## ACTREYNPQCANPQCLCH [003]
[6]
  Ki: 6 nM

## PCLYRSCS [086]
[1]
  Ki: 53 nM

## PCLYLSCP [089]
[1]
  Ki: 50 nM

## HCRKGLDRCPQCLYRTCS [008]
[7]
  Ki: 66 nM

## QCLYIACPSAAKCDNGCQ [009]
[7]
  Ki: 32 nM

## PCLYLACS [087]
[1]
  Ki: 17.5 nM

## QCLYLSCS [081]
[1]
  Ki: 12 nM

## RCDSSQCMQGQCLYRSCP [007]
[7]
  Ki: 94 nM

## RCLYLSCS [082]
[1]
  Ki: 8.8 nM

## PCLYLAQCS [112]
[5]
  Ki: 36 nM
